Reference: the nanobody polyreactivity screen of Harvey et al. (2022)

Test: yeast display, Sf9 membrane polyspecificity reagent, FACS + sequencing; frameworks hold sequencing errors
In short: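 Galactose-induced (36–48 hours) yeast carrying a synthetic nanobody display library were exposed to 10% biotinylated, detergent-solubilized Sf9 membrane reagent at 4 °C for 1 hour. FACS followed streptavidin microbead enrichment, using low and high (top ~1%) gates for expression (anti-HA) and reagent binding (streptavidin). Colony PCR, MiSeq 2 × 250 sequencing and CDR-length filtering followed. Labels for polyreactivity reflect the gate of origin.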

Sequence | polyreactivity (PSR sort gate)
QVQLVESGGGLVQAGGSLRLSCAASGRIFYIYTMGWYILAPGKERELVAGITRAGSTNYADSVKGRFTISRDNAKNTVYLQMNSLKPEDTAVYYSNAYIWIYGFDYCGQGTQVTVSS | high polyreactivity
QVQLVESGGGLVQAGGSLRLSCAASGRIFYKNVMGWYRPAPGKERELVATITRRGGRTFYADSVKGRFTISRDNAKNTVYLQMNSLKPEDTAVYFCNVLPQPGKESTGDDYWGQGTQVTVSS | high polyreactivity
QVQLVESGGGLVQAGGSLRLSCAASGRIFYKSAMGWSRQAPGKEREWVAAITTSGGSTYYADSVKGRFTISRDNAKNTVYLQMNSLKPEDTAVYYCAARSAYGTQRLYYWGQGTQVTVSS | high polyreactivity
QVQLVESGGGLVQAGGSLRLSCAASGRIFYKYAMGWYRQAPGKERELVAGITRSGANTYYADSVKGRFTISRDNAKNTVYLQMNSLKPEDTAVYYCAVYIPRGGRSGYWGQGTQVTVSS | high polyreactivity
QVQLVESGGGLVQAGGSLRLSCAASGRIFYLNAMGWYRQAPGKERELVAAMSGSTGSTYYADSVKGRFTISRDNAKNTVYLQMNSLKPEDTAVYYCNAVLSSNTKWRYPGDYWGQGTQVTVSS | low polyreactivity
QVQLVESGGGLVQAGGSLRLSCAASGRIFYLNDMGWYRQAPGKERELVATITSTGGSTYYADSVKGRFTISRDNAKNTVYLQMNSLKPEDTAVYYCAAGGWRAYSYTARYDYWGQGTQVTVSS | low polyreactivity
QVQLVESGGGLVQAGGSLRLSCAASGRIFYLNVMGWYRQAPGKERELVAAITRRDVTTYADSVKGRFTISRDNAKNTVYLQMNSLKPEDTAVYYCNAVYYNRIGFDYWGQVTQVTVSS | low polyreactivity
QVQLVESGGGLVQAGGSLRLSCAASGRIFYLYAMGWYRQAHGKERELVATINTSGGITYYADSVKGRFTISLDNAKNTVYLQLNSLIPEDTAVYYCNADWEWQYFYFRPGGYWGQGTQETVSS | low polyreactivity
QVQLVESGGGLVQAGGSLRLSCAASGRIFYLYAMGWYRQAPGKERELVAAITGGGSTSYADSVKGRFTISRDNAKNTVYLQMNSLKPEDTAVYYCATDRLTYTKYGYWGQGTQVTVSS | low polyreactivity
QVQLVESGGGLVQAGGSLRLSCAASGRIFYNYAMGWYRQAPGKERELVAAITRRAGRTYYADSVKGRFTISRDNSKNTVYLQMNSLKPEDTAVYYCAKDEPGSSRVLYDSWGQGTQVTVSS | low polyreactivity
QVQLVESGGGLVQAGGSLRLSCAASGRIFYNYAMGWYRQAPGKERELVASISNSGGSTYYADSVKGRFTISRDNAKNTVYLQMNSLKPEDTAVYYCARRYYYYTTYRYDYWGQGTQVSVSS | high polyreactivity
QVQLVESGGGLVQAGGSLRLSCAASGRIFYPNAMGWYRQAPGKERELVAAITSGGRTYYADSVKGRFTISRDNAKNTVYLQMNSLKPEDTAVYYCNARYSFWRSGPGYQGVDYWGQGTQVTVSS | high polyreactivity
QVQLVESGGGLVQAGGSLRLSCAASGRIFYPYAMGWYRQAPGKEREFVATITASGGSTYYADSVKGRVTISRDNAKNTVYFQMNSLKPEDTAVYYCAADDPGYYQVEYWGQGTQVTVSS | high polyreactivity
QVQLVESGGGLVQAGGSLRLSCAASGRIFYPYAMGWYRQAPGKERELVAAIRGGDSTNYADSVKGRFTISRDNAKNTVYLQMNSLKPEDTAVYYCAAVLRYVVRPYSYWSGGYDYWGQGTQVTVSS | high polyreactivity
QVQLVESGGGLVQAGGSLRLSCAASGRIFYPYAMGWYRQAPGKERELVAAISARGGSTYYADSVKGRFTISRDNAKNTVYLQMNSLKPEDTAVYYCATYTYRGVAEMDYWGQGTQVTVSS | high polyreactivity
QVQLVESGGGLVQAGGSLRLSCAASGRIFYPYAMGWYRQAPGKERELVASITSGGGTYYADSVKGRFTISRDNAKNTVYLQMNSLKPEDTAVYYCAAKYYTSWIRYDYWGQGTQVTVSS | low polyreactivity
QVQLVESGGGLVQAGGSLRLSCAASGRIFYRNAKGWYRQATGKERALVASITSGGRTNYADSVKGRFTISRDNAKNTVYLQMNSLKPEDTAVYYCAAPPPYSVRTFRFYYWGQGTQVTVSS | high polyreactivity
QVQLVESGGGLVQAGGSLRLSCAASGRIFYRNAMGRYRQAPGKERELVAAISSSGGRTYYADSVKGRFTISRDNAKITVYFQMNSLKPEDTAVYYCNRAYYLDSGYDSWGQGTQVTVSS | high polyreactivity
QVQLVESGGGLVQAGGSLRLSCAASGRIFYRNAMGWSRQAPGKERELVASITSAGRTYYADSVKGRFTISRDNAKNTVYLQMNSLKPEDTAVYYCAVRVAVLLNLYGYWGQGTQVTVSS | low polyreactivity
QVQLVESGGGLVQAGGSLRLSCAASGRIFYRNAMGWYRQAPGKERELVAAISSGSGTYYADSVKGRFTISRDNAKNTVYLQMNSLKPEDTAVYYCAARARSRDYYWGQGTQVTVSS | high polyreactivity
QVQLVESGGGLVQAGGSLRLSCAASGRIFYRNVMGWNRQAPGKERELVAAITYRTGSTYYADSVKGRFTISRDNAKNTVYLQMNSLKPEDTAVYYCNVVPRNGQTWGYEYDYWGQGTQVTVSS | high polyreactivity

Sequence | polyreactivity (PSR sort gate)
QVQLVESGGGLVQAGGSLRLSCAASGRIFYRYAMGWYRQAPGKEREFVAAISRSGTTTYYADSVKGRFTISRDNAKNTVYLQMNSLKPEDTAVYYCAVGYRGWDGYWGQGTQVTVSS | high polyreactivity
QVQLVESGGGLVQAGGSLRLSCAASGRIFYRYAMGWYRQAPGKERELVAAISGRGGSTYYADSVKGRFTISRDNAKNTVYLQMNSLKPEDTAVYYCNALPVYRSLAYEVDYWGQGTQVTVSS | high polyreactivity
QVQLVESGGGLVQAGGSLRLSCAASGRIFYRYAMGWYRQAPGKERELVASITGRGGRTYYADSVKGRFTISRDNAKNSVYLHMNSLKPEDTEVYYCAADWGVHRPPYDSWGQGTQVTVSS | high polyreactivity
QVQLVESGGGLVQAGGSLRLSCAASGRIFYRYARGWYRQAPGKEREFVAAISGTGGSTYYADSVKGRFTISRDNAKNTVYLQMNSLKPEDTAVYYCAAFSYYSSGYDYWGQGTQVTVSS | high polyreactivity
QVQLVESGGGLVQAGGSLRLSCAASGRIFYRYTMGWYRQAPGKERELVAAITRGGNTYYADSVKGRFTISRDNAKNTVYLQMNSLKPEDTAVYYCAKKAPSDRNNYWGQGTQVTVSS | high polyreactivity
QVQLVESGGGLVQAGGSLRLSCAASGRIFYSNAMGWYRQAPGKERELVAASRWSGTRTSYADSVKGRFTISRDNAKNTVYLQMNSLKPEDTAVYYCAAAGWYHSYWGQGTQVTVSS | high polyreactivity
QVQLVESGGGLVQAGGSLRLSCAASGRIFYSNAMGWYRQAPGKERELVAGINYRDGSTYYADSVKGRFTISRDNAKKTVYLQMNSLKPEDTAVYYCAKRRQSYPYKTSTWYSHYSWGQGTQVTVSS | high polyreactivity
QVQLVESGGGLVQAGGSLRLSCAASGRIFYSNAMGWYRQAPGKERELVATISTGGSTYAESVKGRFTISRDNAKNTVYLQLISLTPEESAVYYCAVDEWRWRVGAVAYYYWGQGTQVTVSS | low polyreactivity
QVQLVESGGGLVQAGGSLRLSCAASGRIFYSNAMGWYRQAPGKERELVAVIRRTGSTYYADSVKGRFTISRDNAKNTVYLQMNSLKPEDTAVYYCATRIPYGRGGNRYDYWGQGTQVTVSS | low polyreactivity
QVQLVESGGGLVQAGGSLRLSCAASGRIFYSNVMGWYRQAPGKERELVAAIRFSGGGTYYADSVKGRFTITRDNAKNTVYLQMNSLKPEDTAVYYCAAEYYLRVSGRTYVTSHDYWGQGTQVTVSS | high polyreactivity
QVQLVESGGGLVQAGGSLRLSCAASGRIFYSNVMGWYRQAPGKERELVAAISGRTGGTYYADSVKGRFTISRDNAKNTVYLQMNSLKPEDTAVYYCNAYSLRHHHSDYWGQGTQVTVSS | low polyreactivity
QVQLVESGGGLVQAGGSLRLSCAASGRIFYSYAMGWYIPAPGKERELVAAITVSGGSTFYADSVKGRFTISRDNAKNTVYLQMNSLKPEDTAVYYCAAQSTTIEDGWYVEYNYWGQGTQVTVSS | high polyreactivity
QVQLVESGGGLVQAGGSLRLSCAASGRIFYSYAMGWYREAPGKERELVAAIDESDGSTYYADSVKGRFTISRDNAKNTVYLQMNSLKQEDTADYYCNADLTLGGEFDYWGHGTQVTVSS | low polyreactivity
QVQLVESGGGLVQAGGSLRLSCAASGRIFYSYAMGWYRQAPGKEREFVAAISRSGARTYYADSVKGRFTISRDNAKNTVYLQMNSLKPEDTAVYYCAADDFSTVEYDYWGQGTQVTVSS | low polyreactivity
QVQLVESGGGLVQAGGSLRLSCAASGRIFYSYAMGWYRQAPGKERELVAAIDESDGSPYYADSVKGRFTISRDNAKNTVYLQMNSLKPEDTAVYYCAADSLLVLFDYWGQGTQVTVSS | low polyreactivity
QVQLVESGGGLVQAGGSLRLSCAASGRIFYSYAMGWYRQAPGKERELVAAIDESDGSTYYADSVKGRFTISRDNAKNTVYLQMNSLKPEDTAVYYCAAGYLDVLWLLDLLQLYGYWGQGTQVTVSS | low polyreactivity
QVQLVESGGGLVQAGGSLRLSCAASGRIFYSYAMGWYRQAPGKERELVAAISWSGGRTYYADSVKGRFTISRDNAKNNVYLQMNSLKPEDTAVYYCARRGYYYDYWGQGTQVTVSS | high polyreactivity
QVQLVESGGGLVQAGGSLRLSCAASGRIFYSYAMGWYRQAPGKEWELVAVNTGGGRTYYADSVKGRFTISRDNAKNTVYLQMNSLKPEDTAVYYCAYRYGGTFRYDYWGQGTQVTVSS | high polyreactivity
QVQLVESGGGLVQAGGSLRLSCAASGRIFYSYAMGWYRQATGKEREMVASISRSGAITNYADSVKGRFTISRDNAKNPVYLQMNSLIPEDTAVYYCAARLRRVYPPYDYWGQGTQVTVSS | high polyreactivity
QVQLVESGGGLVQAGGSLRLSCAASGRIFYSYARGWYRQAPGKERELVAAIDESDGSTYYADSVKGRFTISRDNAKNTVYLQMNSLKPEDTAVYYCAADSLLVLFDYWGQGTQVTVSS | low polyreactivity
